Experimental data: US20220411532A1 (GUNDERSEN LUTHERAN MEDICAL FOUNDATION, published 2022)
Blank lines part the entries; values can stand above or below the binder they belong to.

How the values were obtained:
[1] = target: T1, cleaved amphiregulin (cell-associated transmembrane stalk left after TACE/ADAM17 cleavage of human AREG) (human, UniProt P15514 188-252); assay: live-cell fluorescence imaging of MCF-7 cells with 1A3-pHrodo
T1 construct: Endogenous protein on MCF7 cells and in formalin-fixed human tumor tissue; also called cleaved AREG; cell surface cleaved AREG
T1 sequence: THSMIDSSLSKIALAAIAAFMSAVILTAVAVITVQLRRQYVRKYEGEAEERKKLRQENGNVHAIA
Method: In order to study internalization, 1A3 was conjugated with pHrodo iFL Red dye using pHrodo iFL Red Microscale Protein Labeling Kit (P36014, Thermo Fisher Scientific). MCF7 cells were seeded in 12 mm Nunc Glass Bottom Dish, at a density of 1×10⁵ cells/dish. After allowing the cells to attach overnight, the cells were incubated for 60 min with […] Hoechst dye for nuclei staining and LysoTracker® Green DND-26 (Thermo Fisher Scientific) for lysosomal labeling. The cells were then incubated with 1A3-pHrodo (2 μg/mL) for 20 min at 37° C. After washing the wells with PBS, the cells were supplemented with 1× live-cell imaging solution (Molecular probes, Thermo Fisher Scientific). Fluorescence images were acquired at 30 min intervals for 2.5 h with the Olympus 1X71 inverted fluorescence microscope (Olympus, Shinjuku, Tokyo, Japan). TAPI-2 (20 μM)—pre-treatment was performed overnight, with DMSO serving as a control.

[2] = target: T2, peptide representing uncleaved AREG (human); assay: ELISA on peptides representing cleaved and uncleaved AREG
T2 construct: also called full length AREG peptide; intact AREG
T2 peptide: SMKTHSMIDSSLSKIAC

[3] = target: T1, cleaved amphiregulin (cell-associated …); assay: immunohistochemistry on a breast tumor tissue micro-array, 10 µg/mL antibody
Method: A breast disease spectrum tissue micro-array was purchased from US Biomax Inc. (Derwood, Md., USA). The slides were deparaffinized in xylene and rehydrated by serial incubations in graded ethanol and then in water in a Histo-Tek® SL Slide Stainer (Sakura Finetek USA, Inc., Torrance, Calif., USA). Antigen retrieval was performed in a steamer by boiling slides in a container of citrate buffer (pH 6.0) for 20 min, which was then removed for 15 min of cooling on the benchtop. Slides were washed in 1× Wash buffer (Dako Agilent, Santa Clara, Calif., USA) and endogenous peroxidase was quenched by incubating with Dako Dual Endogenous Enzyme Block (S2003) for 10 min. […] Slides were washed four times in 1× Wash buffer, followed by the incubation for 45 min at room temperature in 1:100 dilution of […] immunoglobulins/HRP (Dako, P0160 or ready-to-use goat anti-rabbit HRP labeled polymer (Dako, K4003). The slides were washed twice in 1× Wash buffer and the color was developed with 3,3-diaminobenzidine tetrahydrochloride substrate chromogen system (K3468, DAKO, Santa Clara, Calif., USA). Sections were washed with water and counterstained with hematoxylin, rinsed with water, dehydrated by serial ethanol washes to 100%, cleared and mounted in Permount (Thermo Fisher Scientific). […]

binding result [1]: binds
B1: 1A3 conjugated with pHrodo iFL Red dye (antibody, V domains shown)
VH: QSVKESEGRLVTPGTPLRLTCTVAGYSLSRYHMCWVRQAPGKGLEWIGMIGGSGRTDYASWAKGRFTISKTSTTVDLKITSPTTEDTATYFCSTVYTDSDGDFWGPGTLVTVSS
VL: ELDMTQTPSSKSVPVGGTVTINCQASESVYSNDRLAWFQQKPGQPPKLLIYYASTLASGVPSRFKGSGSGTQFTLTISDLECADAATYYCQSCYDMSSYGVAFGGGTELEIL
modifications: pHrodo iFL Red dye conjugated to the antibody; positions not given
notes: also called 1A3-pHrodo; 1A3 pHrodo

binding result [2]: no binding
binding result [3]: binds
B2: GMF-1A3 rabbit monoclonal IgG antibody (antibody, V domains shown)
VH: B1 VH
VL: B1 VL
notes: also called anti-cleaved-AREG 1A3 antibody; unconjugated 1A3

binding result [2]: no binding
B3: GMF-3E4 rabbit monoclonal IgG antibody (antibody, V domains shown)
VH: QSVKESEGRLVTPGTPLTLTCTVSGFSLSDYWMSWVRQAPGKGLEWIGIAGYSDNTYYASRAKGRFTISKTSTTVVLKITRPTTEDTATYFCVRDLYGVYSSGTTLWGPGTLVTVSS
VL: ELVMTQTPSPVSAAVGGTVTISCQSSQSVYNNNRLAWFQQKPGQPPKLLIYYASTLASGVSSRFKGSGSGTQFTLIISDVVCDDAATYYCQGYYSGGITGFGGGTEVVVK
